T1: human CD11a (human) (UniProt P20701)
T1 sequence (looked up): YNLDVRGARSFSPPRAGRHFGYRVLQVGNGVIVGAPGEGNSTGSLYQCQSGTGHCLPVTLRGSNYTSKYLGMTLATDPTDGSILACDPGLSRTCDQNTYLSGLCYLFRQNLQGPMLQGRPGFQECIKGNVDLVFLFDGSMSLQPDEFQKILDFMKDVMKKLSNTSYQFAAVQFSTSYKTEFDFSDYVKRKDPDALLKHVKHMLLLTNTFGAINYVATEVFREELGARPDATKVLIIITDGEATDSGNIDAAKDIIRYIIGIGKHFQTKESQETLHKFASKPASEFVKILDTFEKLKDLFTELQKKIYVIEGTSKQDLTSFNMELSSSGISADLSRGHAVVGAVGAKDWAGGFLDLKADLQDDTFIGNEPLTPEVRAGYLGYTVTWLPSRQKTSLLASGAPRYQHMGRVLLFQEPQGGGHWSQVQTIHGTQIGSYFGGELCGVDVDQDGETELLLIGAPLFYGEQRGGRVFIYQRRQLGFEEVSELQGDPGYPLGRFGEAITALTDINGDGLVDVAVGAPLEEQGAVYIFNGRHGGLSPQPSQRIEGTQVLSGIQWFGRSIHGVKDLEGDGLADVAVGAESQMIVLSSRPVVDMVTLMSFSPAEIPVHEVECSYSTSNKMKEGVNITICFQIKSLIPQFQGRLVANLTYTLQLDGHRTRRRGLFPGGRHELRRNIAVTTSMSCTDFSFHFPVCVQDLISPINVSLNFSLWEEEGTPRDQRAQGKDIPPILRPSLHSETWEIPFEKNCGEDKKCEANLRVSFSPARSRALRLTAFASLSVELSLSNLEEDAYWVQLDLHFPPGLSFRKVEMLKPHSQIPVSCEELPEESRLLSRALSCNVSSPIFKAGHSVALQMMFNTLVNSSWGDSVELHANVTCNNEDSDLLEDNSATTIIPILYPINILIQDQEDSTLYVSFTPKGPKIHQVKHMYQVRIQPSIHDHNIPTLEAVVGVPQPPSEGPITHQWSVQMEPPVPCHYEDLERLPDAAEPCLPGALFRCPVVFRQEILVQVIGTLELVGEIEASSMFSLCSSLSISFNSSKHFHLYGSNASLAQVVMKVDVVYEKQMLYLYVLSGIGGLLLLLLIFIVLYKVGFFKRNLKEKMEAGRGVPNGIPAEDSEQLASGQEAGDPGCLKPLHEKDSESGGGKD

T2: rhesus CD11a (rhesus) (UniProt H9Z8N3)
T2 sequence: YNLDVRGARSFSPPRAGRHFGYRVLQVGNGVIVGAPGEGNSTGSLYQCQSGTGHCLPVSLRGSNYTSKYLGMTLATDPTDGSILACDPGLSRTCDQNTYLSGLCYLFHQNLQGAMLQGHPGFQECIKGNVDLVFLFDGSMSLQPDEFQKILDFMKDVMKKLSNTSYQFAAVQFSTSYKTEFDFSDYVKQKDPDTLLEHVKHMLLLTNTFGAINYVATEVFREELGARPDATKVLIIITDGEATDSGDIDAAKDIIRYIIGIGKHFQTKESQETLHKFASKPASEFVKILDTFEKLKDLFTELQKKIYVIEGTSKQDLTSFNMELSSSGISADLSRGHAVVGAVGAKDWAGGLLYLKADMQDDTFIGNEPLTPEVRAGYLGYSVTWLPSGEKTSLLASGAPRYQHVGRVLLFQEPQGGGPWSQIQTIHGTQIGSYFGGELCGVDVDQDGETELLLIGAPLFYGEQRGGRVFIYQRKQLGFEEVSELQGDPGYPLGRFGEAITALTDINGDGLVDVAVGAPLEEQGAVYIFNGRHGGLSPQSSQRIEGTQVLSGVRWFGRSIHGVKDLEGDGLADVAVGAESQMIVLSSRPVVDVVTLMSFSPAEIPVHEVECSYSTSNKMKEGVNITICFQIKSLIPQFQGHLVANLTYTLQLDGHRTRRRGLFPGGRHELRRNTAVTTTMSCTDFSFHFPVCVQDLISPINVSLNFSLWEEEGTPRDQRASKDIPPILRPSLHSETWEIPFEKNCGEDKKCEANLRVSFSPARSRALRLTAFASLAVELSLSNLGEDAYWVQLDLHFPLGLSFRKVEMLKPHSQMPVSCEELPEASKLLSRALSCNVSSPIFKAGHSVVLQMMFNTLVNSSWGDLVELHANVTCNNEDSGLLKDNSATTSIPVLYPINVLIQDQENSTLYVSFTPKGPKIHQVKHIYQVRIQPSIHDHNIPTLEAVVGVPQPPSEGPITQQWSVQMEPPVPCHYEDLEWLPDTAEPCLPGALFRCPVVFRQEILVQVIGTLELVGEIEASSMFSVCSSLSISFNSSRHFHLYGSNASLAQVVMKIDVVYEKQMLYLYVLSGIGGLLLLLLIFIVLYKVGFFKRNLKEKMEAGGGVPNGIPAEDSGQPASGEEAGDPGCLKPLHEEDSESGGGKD


What was measured:
human CD11a (human) = target: T1, human CD11a (human); test: FACScan, Jurkat cells
rhesus CD11a (rhesus) = target: T2, rhesus CD11a (rhesus); test: binding to rhesus peripheral blood lymphocytes

| Binder | Var.EC50/HuIgG1 EC50 (human CD11a (human)) | Var.EC50/HuIgG1 EC50 (rhesus CD11a (rhesus)) |
| --- | --- | --- |
| H2A2 variant IgG1 (antibody, V domains shown) VH: EVQLVESGGGLVQPGGSLRLSCAASGYSFTGHWMNWVRQAPGKGLEWVGMIHPADAETRYNQKFKDRFTISVDKSKNTLYLQMNSLRAEDTAVYYCARGIYFYGTTYFDYWGQGTLVTVSS VL: DIQMTQSPSSLSASVGDRVTITCRASKTISKYLAWYQQKPGKAPKLLIYSGSTLQSGVPSRFSGSGSGTDFTLTISSLQPEDFATYYCQQHNEYPLTFGQGTKVEIK | 1.9 | 1.1 |
| H2A3 variant IgG1 (antibody, V domains shown) VH: EVQLVESGGGLVQPGGSLRLSCAASGYSFTGHWMNWVRQAPGKGLEWVGMIAPSDAETRYNQKFKDRFTISVDKSKNTLYLQMNSLRAEDTAVYYCARGIYFYGTTYFDYWGQGTLVTVSS VL: DIQMTQSPSSLSASVGDRVTITCRASKTISKYLAWYQQKPGKAPKLLIYSGSTLQSGVPSRFSGSGSGTDFTLTISSLQPEDFATYYCQQHNEYPLTFGQGTKVEIK | 4.6 | 1.3 |
| SerH55Ala variant IgG1 (antibody, V domains shown) VH: EVQLVESGGGLVQPGGSLRLSCAASGYSFTGHWMNWVRQAPGKGLEWVGMIHPSDAETRYNQKFKDRFTISVDKSKNTLYLQMNSLRAEDTAVYYCARGIYFYGTTYFDYWGQGTLVTVSS VL: DIQMTQSPSSLSASVGDRVTITCRASKTISKYLAWYQQKPGKAPKLLIYSGSTLQSGVPSRFSGSGSGTDFTLTISSLQPEDFATYYCQQHNEYPLTFGQGTKVEIK | 1.3 | 1.3 |
| ArgH58Ala variant IgG1 (antibody, V domains shown) VH: EVQLVESGGGLVQPGGSLRLSCAASGYSFTGHWMNWVRQAPGKGLEWVGMIHPSDSETAYNQKFKDRFTISVDKSKNTLYLQMNSLRAEDTAVYYCARGIYFYGTTYFDYWGQGTLVTVSS VL: DIQMTQSPSSLSASVGDRVTITCRASKTISKYLAWYQQKPGKAPKLLIYSGSTLQSGVPSRFSGSGSGTDFTLTISSLQPEDFATYYCQQHNEYPLTFGQGTKVEIK | 1.1 | 3.3 |
| SerH53Ala variant IgG1 (antibody, V domains shown) VH: EVQLVESGGGLVQPGGSLRLSCAASGYSFTGHWMNWVRQAPGKGLEWVGMIHPADSETRYNQKFKDRFTISVDKSKNTLYLQMNSLRAEDTAVYYCARGIYFYGTTYFDYWGQGTLVTVSS VL: DIQMTQSPSSLSASVGDRVTITCRASKTISKYLAWYQQKPGKAPKLLIYSGSTLQSGVPSRFSGSGSGTDFTLTISSLQPEDFATYYCQQHNEYPLTFGQGTKVEIK | 1.8 | 0.7 |
| LysH64Ala variant IgG1 (antibody, V domains shown) VH: EVQLVESGGGLVQPGGSLRLSCAASGYSFTGHWMNWVRQAPGKGLEWVGMIHPSDSETRYNQKFADRFTISVDKSKNTLYLQMNSLRAEDTAVYYCARGIYFYGTTYFDYWGQGTLVTVSS VL: DIQMTQSPSSLSASVGDRVTITCRASKTISKYLAWYQQKPGKAPKLLIYSGSTLQSGVPSRFSGSGSGTDFTLTISSLQPEDFATYYCQQHNEYPLTFGQGTKVEIK | 2.5 | 1.2 |
| LysH73Arg variant IgG1 (antibody, V domains shown) VH: EVQLVESGGGLVQPGGSLRLSCAASGYSFTGHWMNWVRQAPGKGLEWVGMIHPSDSETRYNQKFKDRFTISVDRSKNTLYLQMNSLRAEDTAVYYCARGIYFYGTTYFDYWGQGTLVTVSS VL: DIQMTQSPSSLSASVGDRVTITCRASKTISKYLAWYQQKPGKAPKLLIYSGSTLQSGVPSRFSGSGSGTDFTLTISSLQPEDFATYYCQQHNEYPLTFGQGTKVEIK | 4.6 | 5.5 |
| LysH62Ala variant IgG1 (antibody, V domains shown) VH: EVQLVESGGGLVQPGGSLRLSCAASGYSFTGHWMNWVRQAPGKGLEWVGMIHPSDSETRYNQAFKDRFTISVDKSKNTLYLQMNSLRAEDTAVYYCARGIYFYGTTYFDYWGQGTLVTVSS VL: DIQMTQSPSSLSASVGDRVTITCRASKTISKYLAWYQQKPGKAPKLLIYSGSTLQSGVPSRFSGSGSGTDFTLTISSLQPEDFATYYCQQHNEYPLTFGQGTKVEIK | 1.8 | 4.9 |
| HisH52Ala variant IgG1 (antibody, V domains shown) VH: EVQLVESGGGLVQPGGSLRLSCAASGYSFTGHWMNWVRQAPGKGLEWVGMIAPSDSETRYNQKFKDRFTISVDKSKNTLYLQMNSLRAEDTAVYYCARGIYFYGTTYFDYWGQGTLVTVSS VL: DIQMTQSPSSLSASVGDRVTITCRASKTISKYLAWYQQKPGKAPKLLIYSGSTLQSGVPSRFSGSGSGTDFTLTISSLQPEDFATYYCQQHNEYPLTFGQGTKVEIK | 1.5 | 0.7 |
| GlnH61Ala variant IgG1 (antibody, V domains shown) VH: EVQLVESGGGLVQPGGSLRLSCAASGYSFTGHWMNWVRQAPGKGLEWVGMIHPSDSETRYNAKFKDRFTISVDKSKNTLYLQMNSLRAEDTAVYYCARGIYFYGTTYFDYWGQGTLVTVSS VL: DIQMTQSPSSLSASVGDRVTITCRASKTISKYLAWYQQKPGKAPKLLIYSGSTLQSGVPSRFSGSGSGTDFTLTISSLQPEDFATYYCQQHNEYPLTFGQGTKVEIK | 4.1 | 5.3 |
| AspH65Ala variant IgG1 (antibody, V domains shown) VH: EVQLVESGGGLVQPGGSLRLSCAASGYSFTGHWMNWVRQAPGKGLEWVGMIHPSDSETRYNQKFKARFTISVDKSKNTLYLQMNSLRAEDTAVYYCARGIYFYGTTYFDYWGQGTLVTVSS VL: DIQMTQSPSSLSASVGDRVTITCRASKTISKYLAWYQQKPGKAPKLLIYSGSTLQSGVPSRFSGSGSGTDFTLTISSLQPEDFATYYCQQHNEYPLTFGQGTKVEIK | 0.8 | 1.1 |

From EP1516629B1
